Binding result and Kd data for five molecules are collected here from patent EP4703474A1, “ANTI-LRRC15 ANTIBODY” (priority 2023, dated 2024).

Assay [1] addresses T1, human LRRC15 (full-length, on cells) (human, UniProt Q8TF66 22-581).
T1 construct: also called hLRRC15; endogenous LRRC15 of Hs294T
T1 sequence: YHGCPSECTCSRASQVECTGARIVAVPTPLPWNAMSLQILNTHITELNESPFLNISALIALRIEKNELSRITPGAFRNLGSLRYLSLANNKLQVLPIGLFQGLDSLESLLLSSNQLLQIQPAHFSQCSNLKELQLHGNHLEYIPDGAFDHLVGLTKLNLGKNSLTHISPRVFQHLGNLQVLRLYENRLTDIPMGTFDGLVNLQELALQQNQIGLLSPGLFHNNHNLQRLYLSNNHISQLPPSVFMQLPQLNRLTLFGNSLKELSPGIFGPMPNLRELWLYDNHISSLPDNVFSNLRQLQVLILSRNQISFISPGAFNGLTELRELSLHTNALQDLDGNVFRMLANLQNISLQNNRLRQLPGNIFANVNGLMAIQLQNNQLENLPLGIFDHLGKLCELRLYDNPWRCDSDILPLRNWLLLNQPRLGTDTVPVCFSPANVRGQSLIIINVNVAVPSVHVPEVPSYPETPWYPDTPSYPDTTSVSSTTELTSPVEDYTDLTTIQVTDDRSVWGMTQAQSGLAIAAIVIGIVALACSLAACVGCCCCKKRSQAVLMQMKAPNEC
The assay can be described thus: flow cytometry, endogenous LRRC15 on human melanoma line Hs294T. Background: In flow cytometry, cells or beads pass a laser one at a time.

Assay [2] addresses T2, human LRRC15 extracellular domain expressed on HEK293α (pDisplay-hLRRC15 ECD) (human, UniProt Q8TF66 22-538).
T2 construct: also called WT; human LRRC15 wild-type
T2 sequence: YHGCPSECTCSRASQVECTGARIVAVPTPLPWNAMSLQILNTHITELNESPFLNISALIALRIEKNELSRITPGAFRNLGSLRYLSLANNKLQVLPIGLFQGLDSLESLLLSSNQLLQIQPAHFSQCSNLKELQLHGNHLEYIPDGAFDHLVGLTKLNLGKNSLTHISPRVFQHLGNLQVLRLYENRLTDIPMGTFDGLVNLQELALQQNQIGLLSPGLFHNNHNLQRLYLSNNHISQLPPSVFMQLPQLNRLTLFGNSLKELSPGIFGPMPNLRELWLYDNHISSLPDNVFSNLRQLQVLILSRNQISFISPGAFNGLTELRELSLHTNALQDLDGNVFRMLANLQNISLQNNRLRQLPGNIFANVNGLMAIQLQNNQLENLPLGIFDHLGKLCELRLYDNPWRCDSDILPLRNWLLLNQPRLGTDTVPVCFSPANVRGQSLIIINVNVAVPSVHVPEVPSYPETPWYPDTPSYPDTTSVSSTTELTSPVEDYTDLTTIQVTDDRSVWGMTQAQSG
Description: flow cytometry, HEK293α expressing WT human LRRC15 ECD.

For assay [3], the target named is T3, cynomolgus monkey LRRC15 extracellular domain expressed on HEK293α (pDisplay-cynoLRRC15 ECD) (cynomolgus monkey, UniProt Q8TF66 22-538 (human entry)).
T3 construct: vector-derived parts not described
T3 chain: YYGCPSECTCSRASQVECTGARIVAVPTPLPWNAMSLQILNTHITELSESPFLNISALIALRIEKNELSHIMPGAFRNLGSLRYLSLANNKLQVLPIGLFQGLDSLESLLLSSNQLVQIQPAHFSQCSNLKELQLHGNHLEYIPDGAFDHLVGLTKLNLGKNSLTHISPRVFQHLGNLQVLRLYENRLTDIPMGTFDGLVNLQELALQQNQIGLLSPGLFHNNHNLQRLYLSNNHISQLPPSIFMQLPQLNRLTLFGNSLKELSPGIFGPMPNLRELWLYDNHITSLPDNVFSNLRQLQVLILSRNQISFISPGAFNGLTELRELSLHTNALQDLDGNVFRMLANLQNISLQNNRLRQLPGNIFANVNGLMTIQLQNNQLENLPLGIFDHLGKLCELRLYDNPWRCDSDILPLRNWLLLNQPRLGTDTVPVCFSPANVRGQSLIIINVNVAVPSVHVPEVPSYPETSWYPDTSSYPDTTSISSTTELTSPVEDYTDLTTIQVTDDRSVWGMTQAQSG
The assay can be described thus: flow cytometry, transfected HEK293α, 10 µg/mL.

Assay [4] addresses T4, human LRRC15-His protein (human, UniProt Q8TF66 22-538).
T4 construct: Recombinant, expressed in mammalian cells; also called human LRRC15 antigen; hLRRC15-His
T4 sequence: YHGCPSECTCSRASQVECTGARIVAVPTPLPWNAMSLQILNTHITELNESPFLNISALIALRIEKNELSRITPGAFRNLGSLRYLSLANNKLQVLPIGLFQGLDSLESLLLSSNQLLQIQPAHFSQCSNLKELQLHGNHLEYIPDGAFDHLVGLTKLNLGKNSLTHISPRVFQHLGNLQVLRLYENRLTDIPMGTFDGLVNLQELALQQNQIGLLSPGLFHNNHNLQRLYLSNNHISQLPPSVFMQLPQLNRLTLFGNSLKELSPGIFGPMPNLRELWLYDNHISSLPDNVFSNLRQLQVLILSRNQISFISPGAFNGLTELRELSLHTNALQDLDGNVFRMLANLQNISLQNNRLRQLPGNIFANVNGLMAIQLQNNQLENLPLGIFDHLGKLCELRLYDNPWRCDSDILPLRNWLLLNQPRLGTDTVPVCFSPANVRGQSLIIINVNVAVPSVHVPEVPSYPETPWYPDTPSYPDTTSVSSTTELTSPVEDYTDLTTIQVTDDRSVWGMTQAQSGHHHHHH
The assay can be described thus: SPR, Biacore T200; antibody captured by anti-human IgG (Fc), human LRRC15-His as analyte, 1:1 model. Background: Surface plasmon resonance follows binding to a sensor surface in real time, without labels.

Assay [5] addresses T2, human LRRC15 extracellular domain …. The assay can be described thus: flow cytometry, transfected HEK293α, 10 µg/mL.
The target of assay [6] is T1, human LRRC15 (full-length, on cells). Description: Cell-ELISA, hybridoma supernatant on HEK293α transfected with pcDNA3.1-hLRRC15. A general note: In an ELISA, binding on a coated surface is turned into a signal by an enzyme label.

B1: H02L01 antibody (antibody, human IgG1, kappa, L234A L235A, V domains shown)
VH: EVQLVESGGGLVQPGGSLRLSCAASGFTFRDYYMAWVRQAPGKGLEWVSSIGFDESRTYYADSVKGRFTISRDDSKNTLYLQMNSLRAEDTAVYYCARHGVSYYSGDNWFAYWGQGTLVTVSS
VL: DIQMTQSPSSLSASVGDRVTITCKSSQGLLYSGDQKNYLAWYQQKPGKAPKLLIYWASTRQSGVPSRFSGSGSGTDFTLTISSLQPEDFATYYCQQYYDPPYTFGQGTKVEIKR
notes: Humanized anti-LRRC15 antibody, human IgG1 / kappa; also called hR024 (hR024 H02 + hR024 L01)
As to B1, the binding result in assay [1], in assay [2] and in assay [3] was “binds” in each case.

B2: H02L01-V1 antibody (antibody, human IgG1, kappa, L234A L235A, V domains shown)
VH: EVQLVESGGGLVQPGGSLRLSCAASGFTFRDYYMAWVRQAPGKGLEWVSSIGFDESRTYYADSVKGRFTISRDDSKNTLYLQMNSLRAEDTAVYYCARHGVSKYSGDNWFAYWGQGTLVTVSS
VL: DIQMTQSPSSLSASVGDRVTITCKSSQGLLYSGDQKNYLAWYQQKPGKAPKLLIYWASTRQSGVPSRFSGSGSGTDFTLTISSLQPEDFATYYCQQYYDPPYTFGQGTKVEIKR
notes: Humanized anti-LRRC15 antibody, human IgG1 / kappa; also called hR024 (hR024 H02-V1 + hR024 L01)
As a reminder, the Kd is a measure of binding affinity in units of concentration. In the case of B2, the binding result in assay [3] is “binds”. Also, the Kd in assay [4] is 59.9 nM.

B3: H02L01-V2 antibody (antibody, human IgG1, kappa, L234A L235A, V domains shown)
VH: EVQLVESGGGLVQPGGSLRLSCAASGFTFRDYYMAWVRQAPGKGLEWVSSIGFDESRTYYADSVKGRFTISRDDSKNTLYLQMNSLRAEDTAVYYCARHGVSRYSGDNWFAYWGQGTLVTVSS
VL: DIQMTQSPSSLSASVGDRVTITCKSSQGLLYSGDQKNYLAWYQQKPGKAPKLLIYWASTRQSGVPSRFSGSGSGTDFTLTISSLQPEDFATYYCQQYYDPPYTFGQGTKVEIKR
notes: Humanized anti-LRRC15 antibody, human IgG1 / kappa; also called hR024 (hR024 H02-V2 + hR024 L01)
For B3, the binding result in assay [1], in assay [3] and in assay [5] was “binds” in each case.

B4: H09L03 antibody (antibody, human IgG1, kappa, L234A L235A, V domains shown)
VH: EVQLVESGGGLVQPGGSLRLSCAASGFTFRDYYMAWVRQAPGKGLEWVASIGFDESRTYYADSVKGRFTISRDDSKSTLYLQMNSLRAEDTAVYYCTRHGVSYYSGDNWFAYWGQGTLVTVSS
VL: DIQMTQSPSSLSASVGDRVTITCKSSQGLLYSGDQKNYLAWYQQKPGKSPKLLIYWASTRQSGVPDRFSGSGSGTDFTLTISSLQPEDFATYYCQQYYDPPYTFGQGTKVEIKR
notes: Humanized anti-LRRC15 antibody, human IgG1 / kappa; also called hR024 (hR024 H09 + hR024 L03)
B4: the binding result in assay [1], in assay [3] and in assay [5] was “binds” in each case.

B5: rR024 antibody (antibody, rat IgG2b, V domains shown)
VH: EVQLVESNGALVQPGRSLKLSCAASGFTFRDYYMAWVRQAPSKGLEWVASIGFDESRTYYRDSVKGRFTISRDDVKSTLYLQLDSLRSEDTATYYCTRHGVSYYSGDNWFAYWGQGALVIVSS
VL: DIVMTQSPSSLAVSAGETVIINCKSSQGLLYSGDQKNYLAWYQQKPGQSPKLLIYWASTRQSGVPDRFIGSGSGTDFTLTISSVQGEDLAIYYCQQYYDPPYTFGAGTKLELKR
notes: Rat monoclonal antibody from hybridoma culture supernatant; rat IgG2b, kappa light chain; also called clone rR024
Regarding B5, the binding result in assay [6] is “binds”.
